# Source: publication PMC6957217, “Molecular anatomy of the receptor binding module of a bacteriophage long tail fiber” (PLoS Pathogens, 2019)
# B1: Phage T4 LTF needle (gp37; amino acids 799–1026), wild type (domain or fragment)
# chain: not shown
# notes: bacteriophage T4 long tail fiber protein gp37, needle (domains D10 and D11), amino acids 799-1026; pCDF Duet-1 MCS1; also called gp37 needle; WT gp37; source: E. coli BL21 (DE3) pLysS, co-expressed with chaperones gp38 and gp57A, purified (HisTrap, Superdex-200 SEC, trimer peak)
# Molecular target: the molecule itself
# Test: SEC; Hi-Load 16/60 Superdex-200 in PBS pH 7.4; trimers eluted at the expected 81 kDa size
protein,measurement,value
B1,stoichiometry N,3
